Measured values: patent publication US20190085028A1

Molecular target: NMDA receptor on rat hippocampal neurons (E18 Sprague Dawley primary culture) (rat), P35439
Experiment: cell-based or functional assay

B1: Peptide SEQ ID NO: 3 (…) (peptide)
peptide: GEDDYQDAQDLIRDKSN
IC50 of inhibition of NMDA receptor-evoked current (dose-response curve, FIG. 3H): 156 µM | inhibition of NMDA receptor-evoked current (whole-cell patch clamp), 10 µM peptide: 14% | inhibition of NMDA receptor-evoked current (whole-cell patch clamp), 100 µM peptide: 40% | inhibition of NMDA receptor-evoked current (whole-cell patch clamp), 500 µM peptide: 66.5%
